Laboratory results as given in article PMC4491180.

Columns and labels:
[1] = target: wild-type Grb2 (growth factor receptor-bound protein 2), bacterially expressed and purified (UniProt P62993); test: MST; unlabelled Grb2 (7.3 nM to about 30 μM) titrated into 100 nM Atto488-labelled Grb2; 20 °C; PBS without calcium and magnesium, 0.01% Tween 20; apparent Kd, dimer to monomers
[2] = target: wild-type Grb2 (growth factor receptor-bound protein 2), bacterially expressed and purified (UniProt P62993); test: MST; monomer–dimer equilibrium of Grb2 in the presence of the SOS1 peptide (…); apparent Kd, dimer to monomers

## wild-type Grb2 (growth factor receptor-bound protein 2), bacterially expressed and purified (from UniProt P62993 1-217) (natural protein)
[1]
  Kd: 0.76 µM
[2]
  Kd: 0.7 µM
